Experimental data from US6734169B2, “Apolipoprotein A-I agonists and their use to treat dyslipidemic disorders” (priority 1997, dated 2004).

Biological target: T1, LCAT (purified from human plasma) (Homo sapiens, UniProt P04180)
T1 construct: The reaction is initiated by addition of LCAT (purified from human plasma); from tissue
T1 sequence (P04180 25-440): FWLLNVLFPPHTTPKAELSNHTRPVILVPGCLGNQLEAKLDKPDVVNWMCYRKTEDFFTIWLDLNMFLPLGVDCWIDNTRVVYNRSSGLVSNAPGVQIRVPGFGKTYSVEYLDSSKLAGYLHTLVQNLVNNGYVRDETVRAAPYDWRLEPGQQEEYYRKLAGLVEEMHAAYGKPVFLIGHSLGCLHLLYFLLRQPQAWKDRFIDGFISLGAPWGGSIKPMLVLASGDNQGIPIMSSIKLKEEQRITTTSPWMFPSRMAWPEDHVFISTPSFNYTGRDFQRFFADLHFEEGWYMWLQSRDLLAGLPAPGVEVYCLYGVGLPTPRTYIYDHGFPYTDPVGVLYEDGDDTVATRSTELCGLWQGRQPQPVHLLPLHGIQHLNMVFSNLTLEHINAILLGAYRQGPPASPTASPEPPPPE
Assay: LCAT activation assay
Type: biochemical
Conditions: LCAT activation as compared with native human ApoA-I (=100%); equivalent masses of peptide or ApoA-I; SUVs of EPC or POPC and radiolabelled cholesterol; listed as peptide 18AM4
Protocol: The peptides synthesized as described in Section 6, supra, were analyzed in vitro for their ability to activate LCAT. In the LCAT assay, substrate vesicles (small unilamellar vesicles or “SUVs”) composed of egg phophatidylcholine (EPC) or 1-Palmitoyl-2-oleyl-phosphatidylcholine (POPC) and radiolabelled cholesterol are preincubated with equivalent masses either of peptide or ApoA-I (isolated from human plasma). The reaction is initiated by addition of LCAT (purified from human plasma). Native ApoA-I, which was used as positive control, represents 100% activation activity. “Specific activity” (i.e., units of activity (LCAT activation)/unit of mass) of the peptides can be calculated as the concentration of peptide that achieves maximum LCAT activation. For example, a series of concentrations of the peptide (e.g., a limiting dilution) can be assayed to determine the “specific activity” for the peptide—the concentration which achieves maximal LCAT activation (i.e., percentage conversion of cholesterol to cholesterol ester) at a specific timepoint in the assay (e.g., 1 hr.). When plotting percentage conversion of cholesterol at, e.c., 1 hr., against the concentration of peptide used, the “specific activity” can be identified as the concentration of peptide that achieves a plateau on the plotted curve. […]

ACTIVITY (%) LCAT: less than 4%
Sequence: EWLEAFYKKVLEKLKELF [peptide 246]
